# Test results as given in patent US20110263827A1 (AbbVie / Abbott, published 2011).
# “And” between values parts separate entries of the source, which are not always exact repeats. Equal values may be shown once.
# T1: PLGF (UniProt P49763-2 21-149, limits assumed, biotinylated)
# T1 construct: ELISA antigen; also called P1GF
# T1 sequence (looked up): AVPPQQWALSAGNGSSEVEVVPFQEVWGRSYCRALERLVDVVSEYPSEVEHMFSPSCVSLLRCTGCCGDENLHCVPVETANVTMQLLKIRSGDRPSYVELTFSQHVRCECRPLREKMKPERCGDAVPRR
# Columns and labels:
# PLGF [1] = target: T1, PLGF; assay: direct bind ELISA, N-term VD;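 further: antibody or DVD-Ig preparations bound to immobilized target antigen on ELISA plates, 1 h at room temperature, TMB detection read as absorbance at 450 nm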
# EGFR [2] = target: T2, EGFR (UniProt P00533 25-645, limits assumed, biotinylated); assay: direct bind ELISA, C-term VD;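 further: ELISA with antibody or DVD-Ig preparations applied to target antigen-coated plates for 1 h at room temperature, TMB colour development, absorbance read at 450 nm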
# T2 construct: ELISA antigen; construct not described
# EGFR [3] = target: T2, EGFR; assay: direct bind ELISA, N-term VD;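 further: antibody or DVD-Ig preparations bound to immobilized target antigen on ELISA plates, 1 h at room temperature, TMB detection read as absorbance at 450 nm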
# PLGF [4] = target: T1, PLGF; assay: direct bind ELISA, C-term VD;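 further: ELISA with antibody or DVD-Ig preparations applied to target antigen-coated plates for 1 h at room temperature, TMB colour development, absorbance read at 450 nm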
# ErbB3 = target: T3, ErbB3 (UniProt P21860 20-643, limits assumed, biotinylated); assay: direct bind ELISA, ref Ab
# T3 construct: ELISA antigen
# IGF1R = target: T4, IGF1R (UniProt P08069 31-932, limits assumed, biotinylated); assay: direct bind ELISA, ref Ab
# T4 construct: ELISA antigen
# RON = RON (UniProt Q04912 25-571, biotinylated); assay: direct bind ELISA, ref Ab
EC50 (PLGF [1]) [nM],EC50 (EGFR [2]) [nM],EC50 (EGFR [3]) [nM],EC50 (PLGF [4]) [nM],further results,Binder
0.26,41.4,–,–,–,"DVD784 (bispecific antibody, DVD-Ig; HC L, LC L; variable parts only) VH: QVQLQQSGAELVKPGASVKISCKASGYTFTDYYINWVKLAPGQGLEWIGWIYPGSGNTKYNEKFKGKATLTIDTSSSTAYMQLSSLTSEDTAVYFCVRDSPFFDYWGQGTLLTVSSASTKGPSVFPLAPQVQLQESGPGLVKPSQTLSLTCTVSGYSISSDFAWNWIRQPPGKGLEWMGYISYSGNTRYQPSLKSRITISRDTSKNQFFLKLNSVTAADTATYYCVTAGRGFPYWGQGTLVTVSS VL: DIVLTQSPDSLAVSLGERVTMNCKSSQSLLNSGMRKSFLAWYQQKPGQSPKLLIYWASTRESGVPDRFTGSGSGTDFTLTISSVQAEDVAVYYCKQSYHLFTFGSGTKLEIKRTVAAPSVFIFPPDIQMTQSPSSMSVSVGDRVTITCHSSQDINSNIGWLQQKPGKSFKGLIYHGTNLDDGVPSRFSGSGSGTDYTLTISSLQPEDFATYYCVQYAQFPWTFGGGTKLEIKR"
0.23,45.5,–,–,–,"DVD844 (bispecific antibody, DVD-Ig; HC S, LC L; variable parts only) VH: QVQLQQSGAELVKPGASVKISCKASGYTFTDYYINWVKLAPGQGLEWIGWIYPGSGNTKYNEKFKGKATLTIDTSSSTAYMQLSSLTSEDTAVYFCVRDSPFFDYWGQGTLLTVSSASTKGPQVQLQESGPGLVKPSQTLSLTCTVSGYSISSDFAWNWIRQPPGKGLEWMGYISYSGNTRYQPSLKSRITISRDTSKNQFFLKLNSVTAADTATYYCVTAGRGFPYWGQGTLVTVSS VL: DIVLTQSPDSLAVSLGERVTMNCKSSQSLLNSGMRKSFLAWYQQKPGQSPKLLIYWASTRESGVPDRFTGSGSGTDFTLTISSVQAEDVAVYYCKQSYHLFTFGSGTKLEIKRTVAAPSVFIFPPDIQMTQSPSSMSVSVGDRVTITCHSSQDINSNIGWLQQKPGKSFKGLIYHGTNLDDGVPSRFSGSGSGTDYTLTISSLQPEDFATYYCVQYAQFPWTFGGGTKLEIKR"
0.23,50.4,–,–,–,"DVD814 (bispecific antibody, DVD-Ig; HC L, LC S; variable parts only) VH: QVQLQQSGAELVKPGASVKISCKASGYTFTDYYINWVKLAPGQGLEWIGWIYPGSGNTKYNEKFKGKATLTIDTSSSTAYMQLSSLTSEDTAVYFCVRDSPFFDYWGQGTLLTVSSASTKGPSVFPLAPQVQLQESGPGLVKPSQTLSLTCTVSGYSISSDFAWNWIRQPPGKGLEWMGYISYSGNTRYQPSLKSRITISRDTSKNQFFLKLNSVTAADTATYYCVTAGRGFPYWGQGTLVTVSS VL: DIVLTQSPDSLAVSLGERVTMNCKSSQSLLNSGMRKSFLAWYQQKPGQSPKLLIYWASTRESGVPDRFTGSGSGTDFTLTISSVQAEDVAVYYCKQSYHLFTFGSGTKLEIKRTVAAPDIQMTQSPSSMSVSVGDRVTITCHSSQDINSNIGWLQQKPGKSFKGLIYHGTNLDDGVPSRFSGSGSGTDYTLTISSLQPEDFATYYCVQYAQFPWTFGGGTKLEIKR"
–,–,3.41,0.74,–,"DVD341 (bispecific antibody, DVD-Ig; HC S, LC S; variable parts only) VH: QVQLQESGPGLVKPSQTLSLTCTVSGYSISSDFAWNWIRQPPGKGLEWMGYISYSGNTRYQPSLKSRITISRDTSKNQFFLKLNSVTAADTATYYCVTAGRGFPYWGQGTLVTVSSASTKGPQVQLQQSGAELVKPGASVKISCKASGYTFTDYYINWVKLAPGQGLEWIGWIYPGSGNTKYNEKFKGKATLTIDTSSSTAYMQLSSLTSEDTAVYFCVRDSPFFDYWGQGTLLTVSS VL: DIQMTQSPSSMSVSVGDRVTITCHSSQDINSNIGWLQQKPGKSFKGLIYHGTNLDDGVPSRFSGSGSGTDYTLTISSLQPEDFATYYCVQYAQFPWTFGGGTKLEIKRTVAAPDIVLTQSPDSLAVSLGERVTMNCKSSQSLLNSGMRKSFLAWYQQKPGQSPKLLIYWASTRESGVPDRFTGSGSGTDFTLTISSVQAEDVAVYYCKQSYHLFTFGSGTKLEIKR"
–,–,–,–,EC50 (ErbB3): 1.19 nM and 1.36 nM and 1.34 nM,"AB062 (antibody, V domains shown, parent antibody) VH: QVQLQQWGAGLLKPSETLSLTCAVYGGSFSGYYWSWIRQPPGKGLEWIGEINHSGSTNYNPSLKSRVTISVETSKNQFSLKLSSVTAADTAVYYCARDKWTWYFDLWGRGTLVTVSS VL: not shown"
0.2,120,–,–,–,"DVD342 (bispecific antibody, DVD-Ig; HC S, LC S; variable parts only) VH: QVQLQQSGAELVKPGASVKISCKASGYTFTDYYINWVKLAPGQGLEWIGWIYPGSGNTKYNEKFKGKATLTIDTSSSTAYMQLSSLTSEDTAVYFCVRDSPFFDYWGQGTLLTVSSASTKGPQVQLQESGPGLVKPSQTLSLTCTVSGYSISSDFAWNWIRQPPGKGLEWMGYISYSGNTRYQPSLKSRITISRDTSKNQFFLKLNSVTAADTATYYCVTAGRGFPYWGQGTLVTVSS VL: DIVLTQSPDSLAVSLGERVTMNCKSSQSLLNSGMRKSFLAWYQQKPGQSPKLLIYWASTRESGVPDRFTGSGSGTDFTLTISSVQAEDVAVYYCKQSYHLFTFGSGTKLEIKRTVAAPDIQMTQSPSSMSVSVGDRVTITCHSSQDINSNIGWLQQKPGKSFKGLIYHGTNLDDGVPSRFSGSGSGTDYTLTISSLQPEDFATYYCVQYAQFPWTFGGGTKLEIKR"
–,–,–,–,EC50 (ErbB3): 0.86 nM and 1.11 nM,"AB063 (antibody, V domains shown, parent antibody) VH: EVQLVESGGGLVQPGGSLRLSCAASGFTFSIYSMNWVRQAPGKGLEWVSYISSSSSTIYYADSVKGRFTISRDNAKNSLYLQMNSLRDEDTAVYYCARDRGDFDAFDIWGQGTMVTVSS VL: DIQMTQSPSSLSASVGDRVTITCQASQDITNYLNWYQQKPGKAPKLLIYDASNLETGVPSRFSGSGSGTDFTFTISSLQPEDIATYNCQQCENFPITFGQGTRLEIKR"
–,–,–,–,EC50 (ErbB3): 1.4 nM and 2.03 nM,"AB067 (antibody, V domains shown, parent antibody) VH: EVQLLESGGGLVQPGGSLRLSCAASGFTFSHYVMAWVRQAPGKGLEWVSSISSSGGWTLYADSVKGRFTISRDNSKNTLYLQMNSLRAEDTAVYYCTRGLKMATIFDYWGQGTLVTVSS VL: QSALTQPASVSGSPGQSITISCTGTSSDVGSYNVVSWYQQHPGKAPKLIIYEVSQRPSGVSNRFSGSKSGNTASLTISGLQTEDEADYYCCSYAGSSIFVIFGGGTKVTVLG"
–,–,–,–,EC50 (IGF1R): 0.24 nM and 0.26 nM,"AB011 (antibody, V domains shown, parent antibody; also called IGF1R) VH: EVQLLESGGGLVQPGGSLRLSCTASGFTFSSYAMNWVRQAPGKGLEWVSAISGSGGTTFYADSVKGRFTISRDNSRTTLYLQMNSLRAEDTAVYYCAKDLGWSDSYYYYYGMDVWGQGTTVTVSS VL: DIQMTQFPSSLSASVGDRVTITCRASQGIRNDLGWYQQKPGKAPKRLIYAASRLHRGVPSRFSGSGSGTEFTLTISSLQPEDFATYYCLQHNSYPCSFGQGTKLEIKR"
–,–,3.88,0.36,–,"DVD783 (bispecific antibody, DVD-Ig; HC L, LC L; variable parts only) VH: QVQLQESGPGLVKPSQTLSLTCTVSGYSISSDFAWNWIRQPPGKGLEWMGYISYSGNTRYQPSLKSRITISRDTSKNQFFLKLNSVTAADTATYYCVTAGRGFPYWGQGTLVTVSSASTKGPSVFPLAPQVQLQQSGAELVKPGASVKISCKASGYTFTDYYINWVKLAPGQGLEWIGWIYPGSGNTKYNEKFKGKATLTIDTSSSTAYMQLSSLTSEDTAVYFCVRDSPFFDYWGQGTLLTVSS VL: DIQMTQSPSSMSVSVGDRVTITCHSSQDINSNIGWLQQKPGKSFKGLIYHGTNLDDGVPSRFSGSGSGTDYTLTISSLQPEDFATYYCVQYAQFPWTFGGGTKLEIKRTVAAPSVFIFPPDIVLTQSPDSLAVSLGERVTMNCKSSQSLLNSGMRKSFLAWYQQKPGQSPKLLIYWASTRESGVPDRFTGSGSGTDFTLTISSVQAEDVAVYYCKQSYHLFTFGSGTKLEIKR"
–,–,3.65,0.37,–,"DVD843 (bispecific antibody, DVD-Ig; HC S, LC L; variable parts only) VH: QVQLQESGPGLVKPSQTLSLTCTVSGYSISSDFAWNWIRQPPGKGLEWMGYISYSGNTRYQPSLKSRITISRDTSKNQFFLKLNSVTAADTATYYCVTAGRGFPYWGQGTLVTVSSASTKGPQVQLQQSGAELVKPGASVKISCKASGYTFTDYYINWVKLAPGQGLEWIGWIYPGSGNTKYNEKFKGKATLTIDTSSSTAYMQLSSLTSEDTAVYFCVRDSPFFDYWGQGTLLTVSS VL: DIQMTQSPSSMSVSVGDRVTITCHSSQDINSNIGWLQQKPGKSFKGLIYHGTNLDDGVPSRFSGSGSGTDYTLTISSLQPEDFATYYCVQYAQFPWTFGGGTKLEIKRTVAAPSVFIFPPDIVLTQSPDSLAVSLGERVTMNCKSSQSLLNSGMRKSFLAWYQQKPGQSPKLLIYWASTRESGVPDRFTGSGSGTDFTLTISSVQAEDVAVYYCKQSYHLFTFGSGTKLEIKR"
–,–,3.41,0.44,–,"DVD813 (bispecific antibody, DVD-Ig; HC L, LC S; variable parts only) VH: QVQLQESGPGLVKPSQTLSLTCTVSGYSISSDFAWNWIRQPPGKGLEWMGYISYSGNTRYQPSLKSRITISRDTSKNQFFLKLNSVTAADTATYYCVTAGRGFPYWGQGTLVTVSSASTKGPSVFPLAPQVQLQQSGAELVKPGASVKISCKASGYTFTDYYINWVKLAPGQGLEWIGWIYPGSGNTKYNEKFKGKATLTIDTSSSTAYMQLSSLTSEDTAVYFCVRDSPFFDYWGQGTLLTVSS VL: DIQMTQSPSSMSVSVGDRVTITCHSSQDINSNIGWLQQKPGKSFKGLIYHGTNLDDGVPSRFSGSGSGTDYTLTISSLQPEDFATYYCVQYAQFPWTFGGGTKLEIKRTVAAPDIVLTQSPDSLAVSLGERVTMNCKSSQSLLNSGMRKSFLAWYQQKPGQSPKLLIYWASTRESGVPDRFTGSGSGTDFTLTISSVQAEDVAVYYCKQSYHLFTFGSGTKLEIKR"
–,–,–,–,EC50 (RON): 0.19 nM and 0.24 nM,"AB005 (antibody, V domains shown, parent antibody; also called RON) VH: EVQLVQSGGGLVKPGGSLRLSCAASGFTFSSYAMHWVRQAPGKGLEWVAVISYDGSNKYYADSVKGRFTISRDNSKNTLYLQMNSLRAEDTAVYYCARFSGWPNNYYYYGMDVWGQGTTVTVSS VL: DVVMTQSPLSLPVTPGEPASISCRSSQSLLHSNGFNYVDWYLQKPGQSPHLLIYFGSYRASGVPDRFSGSGSGTDFTLKISRVEAEDVGVYYCMQALQTPPWTFGQGTKVEIRR"
